Assay results taken from the supplement of paper PMC10567573.

B1: TOR1AIP2 (parent)
chain: AGQEGEDTLRRRLLAPEAGSHPQQ

Variants of: B1
Test: protein stability index of a GFP-peptide fusion (GPS, HEK-293T) (PSI 1-6); higher = more stable
Details: c terminus: a fixed tail appended
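Further: lentivirally expressed fusions sorted by FACS into six bins by GFP to DsRed ratio, PSI derived from sequencing read proportions per bin multiplied by bin number.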

Protein stability index of substitutions, site by site:
G5: M 1.97; L 2.49; S 2.03; Y 1.84; K 2.46; N 3.27; Q 2.99; P 2.91; R 2.46; W 1.35; T 2.72; V 2.55
S20: F 1.73; K 1.97; G 2.25; R 2.28; P 2.53; Y 2.18; E 2.91; T 2.1; V 1.73; W 2.08; H 2.1; A 2.45; I 2.08; N 2.02; D 3.33; M 2.68; C 1.62; Q 2.35; L 2.09
E6: I 2.13; K 1.95; Y 2.5; H 2.32; N 3.08; R 3.06; F 3.25; Q 2.37; D 2.79; P 2.88; M 2.33; S 2.59; L 1.94; V 2.53; G 1.73; A 2.25; W 2.63; T 2.08
A18: C 2.48; S 2.35; R 2.87; W 2.21; I 1.9; T 3.11; D 3.62; H 3.03; L 1.57; Q 3.35; M 2.08; F 2.16; Y 1.43; N 4.09; P 4.77; K 3.5; E 3.46; V 2.75; G 3.92
E17: L 2.13; T 4.53; Q 2.63; C 3.65; H 3.34; K 3.86; N 3.16; Y 2.44; V 4.57; R 4.68; M 2.79; A 4.22; I 4.11; D 2.2; G 3.5; P 5.13; F 3.31; S 4.34
A15: C 1.34; P 5.46; W 4.49; G 4.34; S 3; E 5.18; I 4.48; V 5.17; Y 4.12; N 4.55; F 4.87; R 5.03; M 4.55; T 3.68; L 5.02; K 5.44; Q 4.9; D 5.39; H 5.18
Q23: G 1.78; D 2.75; C 2.54; A 2.36; H 2.01; E 2.18
L14: D 5.59; T 5.58; R 5.17; S 5.63; H 5.5; Q 5.68; A 5.73; E 5.37; Y 4.5; C 4.91; W 4.69; M 4.6; N 5.56; G 5.21; F 4.25; P 5.93; K 5.51; I 5.06; V 5.37
T8: L 2.28; K 3.24; C 2.42; E 2.79; N 1.67; P 3.37; Q 2.81; A 2.41; D 3.21; S 2.03; R 2.71; W 1.5; H 3.12; Y 3.17; G 2.93; F 3.06; I 2.17; M 2.34; V 3.16
G19: H 2.22; E 2.15; Q 2.13; N 2.27; Y 1.75; M 3; C 2.15; L 1.72; R 2.49; P 2.69; W 1.31; K 1.86; A 2.23; T 2.58; V 2.37; F 1.86; D 2.83; I 2.54
P16: C 4.47; G 5.51; S 5.43; W 3.99; Q 5.21; R 4.7; M 4.81; A 5.48; K 5.01; F 4.52; E 5.45; T 4.45; V 4.63; N 5.24; D 5.74; I 5.07; H 4.5; Y 4.86; L 5.32
R10: T 5.17; P 5.19; Y 4.53; C 5.64; N 5.29; K 5.06; I 4.62; E 5.4; M 4.88; D 5.38; A 4.84; Q 5.08; G 5.17; W 4.37; H 5.31; S 5.29; V 4.26; L 4.82; F 4.51
D7: Q 2.39; Y 2.41; R 1.73; K 2.57; S 2.04; T 3.15; N 1.97; P 4.24; C 1.54; I 1.76; V 1.76; F 2.47; L 2.73; G 2.12; H 2.73; E 2.56; M 1.88
P22: D 2.6; W 1.94; E 2.66; R 2.04; A 2.58; G 2.44; C 2.43; F 2.31; H 1.65; Y 1.52; Q 2.34; S 1.81; I 2.56; K 2.44; T 1.87; V 2.4; N 3.24; M 2.67; L 2.14
L13: N 5.55; W 3.21; S 5.22; Q 5.15; C 3.48; V 3.31; I 1.82; M 2.22; D 4.91; K 5.21; H 4.82; T 5.03; P 5.6; Y 4.14; R 5.04; E 5.53; F 3.32; G 5.55; A 3.81
L9: W 2.41; T 4.59; F 3.61; E 4.58; R 4.45; P 4.27; I 2.33; S 5.06; H 4.71; Q 4.56; V 3.8; N 4.61; Y 3.67; K 3.87; C 4.29; M 3.69; G 4.89; A 4.4; D 4.17
R11: E 4.6; Y 1.16; P 5.65; Q 3.78; S 4.4; D 5.21; V 3.27; L 2.85; M 2.22; K 2.81; I 2.85; G 5.29; T 3.98; F 2.02; C 3.77; H 2.4; N 4.6; W 2.12
R12: Y 2.3; H 3.29; K 3.55; D 4.7; T 2.35; Q 2.87; S 3.03; V 2.47; G 4.97; I 1.93; L 2.56; C 2.51; A 2.65; F 1.83; E 4.75; P 5.19; N 3.89; M 1.8
H21: L 2.27; M 1.88; C 2.69; P 2.82; Q 2.7; K 2.58; R 2.14; Y 1.85; I 2.96; T 2.26; E 1.73; D 3.73; G 2.47; S 2.76; A 2.53; W 2.6; N 2.69; F 2.02; V 2.1
